Measurements as given in the DeepSol protein solubility set.

Experiment: soluble on expression in E. coli; label from the status in PepcDB or PDB records

Sequence | soluble on expression in E. coli
MVDGKHRMVYNITRFSCPTFSLSASAAAVAGRLTPAVPQNTLSRKSCYGAATSAPSSSYNVMYQQQEDTGIDAFAQFGQQSQQYHPSPELSEQINASKCSPYLTEILVGCEQLIAEGEEDSPTWISAIRQRFEDPQMDEVSKKIGVKLIIEMAFTMEPNQFRTADPQNTFSNLLKTLSYEVKDFLRVFIVPTLGEYHEGRKQLENDSRVYMAVFYAEVFVKLTLDNGSRFDKIGAALADQIEEILKFQPKDEYMKCLLRAFKVAGAELDTSEDLKLRADHILTIMGGYAKGSPLLGDSVKAQIFSLIECRTRGWDRAAARGPVRSSAGAGGGGGCVADRGEHDSSFDDSTDNDLTEEERQFLESHLEQVESRRGAEEDYDEQEMMKEFGKFVKEELQQAELKSTSEMLQKLEIEKDTAGAATETDETTPKTEEK | not soluble
MVLFSEDHIQETRRRGRIEVICGSMFSGKTEELIRRMKRAKFARQRVEIFKPAIDTRYSEEDVVSHDSHSIASTPIDSSASILLFTSEIDVVGIDEAQFFDDGLIDVCRQLANNGIRVIIAGLDMDFKGNPFGPMPQLCAIADEVSKVHAICVKCGDLASFSHRTVKNDKQVLLGETAEYEPLCRECYLRARGEDGQKILEHHHHHH | soluble
MKYIEPHFISFTQHTLKSQLIPKSFHGMKILQFSDLHLGYYFSLQHLSQVVSKINAVNPDIVLFTGDLIDNYQTYTDTPFVASILKNIQAPFGKFAIYGNHDHGGYGTEYYEHIMRESGFELLLNSKKRIRLMDNSEISIFGLDDILLGKPKIEKTLQHARQNTYNIVLVHEPDIAPQISKYPINLQLSGHSHGGQVQIPFLGAIITPSLAKDYIEGFYTMQDLTLYVNRGLGRTRVPFRFMSKPEITIFTLQHSLEHHHHHH | not soluble
MILKPIGVVKSPFKTQNDAPRQGRFSDAVSEIAIFDEYADGLHKIENLRHIIVLYWMDKASRDKLRVVPPGETEERGVFTTRSPSRPNPIGLCVVEILEVERNRLKVRWLDALDGSPVIDIKKYSPEIDCVNQLEGQQPLEHHHHHH | soluble
HHHHHHGILMMANRMILNETAWFGRGAVGALTDEVKRRGYQKALIVTDKTLVQCGVVAKVTDKMDAAGLAWAIYDGVVPNPTITVVKEGLGVFQNSGADYLIAIGGGSPQDTCKAIGIISNNPEFADVRSLEGLSPTNKPSVPILAIPTTAGTAAEVTINYVITDEEKRRKFVCVDPHDIPQVAFIDADMMDGMPPALKAATGVDALTHAIEGYITRGAWALTDALHIKAIEIIAGALRGSVAGDKDAGEEMALGQYVAGMGFSNVGLGLVHGMAHPLGAFYNTPHGVANAILLPHVMRYNADFTGEKYRDIARVMGVKVEGMSLEEARNAAVEAVFALNRDVGIPPHLRDVGVRKEDIPALAQAALDDVCTGGNPREATLEDIVELYHTAW | soluble
MQVLWSNPIELGMTGGDVRMVKGPSDALRCLADHWPYRGPYYVAARSACRAAIDGRRTCEEARRLFLSAAEEARLKAH | not soluble
MGSDKIHHHHHHMKTRIVQKQFKRKETKYIVDKKTFELLEKELRQYMMADEFATSTITNIYFDNEDFDMIQDSLAKKNGREKIRMRVYDAIPSESSQAFLEIKKKENKIGYKYRLTSNPVSVANYIENGVIDSTIKDDKVNSELEMLRERYGTIKPKMYIYYDRVSYKGIEDKKVRLTIDKNLLYRDYDVDAMEGKFGKNLLDPTKVIMEVKVPEERPDWLVALLEKYQIEKQSFSKYGNAYKLAHNITGEEVSQHAVV | not soluble
METPMHDEEESDSLNTSHLSDVELDDLVTTKFVEEFKNLKIADDSLEVVRDVGSPLNQALSPIERRNSDEFLLEDHPSLVRPIKDIFQRDEAMLLKNRILDASDEILKTNFMWNMFERSKKWRNTSHSSEVSLLDSLFQMVDRRPVLLHISCSRLTENDISCMIRKSLLDVAAQPRQKTVFRVTIKTEMPLKQFLGQLAMLLSTSPTIKFECAPVTALMKNLDGSMRKFYTAEVENFAEAELGLLSMSHLSPMNASARFKFTMNEKPFVTVNVGYHSNIDQCRRQKTIVIEQTVDGTVPARRVTFGFPLVSRVEEYELDEGLPFIPLRNSTKVFDLSQHFGNVQALPKVLDLKNIVFK | not soluble
MAHHHHHHMKALKLFTNRICPFCQRVLITAKEKRVTLEEVEVPLGDDMPQWYKELNPRETVPMLQVDGKKCMIESDLISRYIDRISSPENALIGSSPYQRHRVEFFLSEIGDLVKAYFGLVRDPFNEEKRKSVDHNTAYIEGIIAEHQGDGPYFLDDTFSMAEVMVVPFLACFRPVLSYYCGYDIFHEAPRLKKMYVTSMQRTTVKETISKPEEYIIGFKSKVPKSHVTWSLAPGYVLFVNKYSPFSDRPRLACALKNIDLPMLEIDLKQLPSWFRWFNQRETVPTLLTPRGTYVHESQLIVHYLDDGFPEHGPALLPKDADGSYHVRFVESNVDYFMDAMYSLIKDPKNTNAKEEFDWAAGELEKLLAEHQFGEGPFFGGATMNAADVSLLPMLVHLKACTPDLTEGQDLLANYKLLAAAAEAGLTSEAGKKVFLSLSEYSSIYKTFLRPSS | soluble
MAHHHHHHMTESTHLIDAGCFISQMNELVLIDPLYMNYVITNYFNYLINDKNELLPKESLNGVYFENAKPGLWSSFAIKEKNIFLPNSQKMEQNMIDLGIDKNYGNEIITSFACFNNTEFMHEYLTVEKLNELKWEKFESNINCIGNHNNGNIYKSQSKEEDKPINFSNYFTNILTVESGQVGLFCTESIKNCTNALLEKYEIYDIKNKEELDNFFNKNMNDLYPWYNKICNLTLSSSITIIDYIDMPLGSVCMSGSDCVSNYLCEVVKDDITGEIWAIRVNFFNPFK | soluble
MTIFNKIDYNYYKLINYPIMMVHDEWLGDLTGVNQVSFRRLRETSSTRNQLNKILRQEIHDKISGVELSDINKEGFLYQSIGKIRLLALSSALFDIQCPDYIFSRLYRETLIREIGYQNVKQLSFYWQGGQCKPEYGEERFCAELIKYGAGNLEWLFADNPLWTIVKYLLPKSGEIKPTHINDLFLNRLNKILLPYETL | not soluble
MDFTQQLQACVTQANQALSRFIAPLPFQNTPVVEAMQYGALLGGKRLRPFLVYATGQMFGVSTATLDAPAAAVECIHAYSLIHDDLPAMDDDDLRRGLPTCHIKFGEANAILAGDALQTLAFAIISDAPMPEVADRDRIAMIAELANASGIAGMCGGQALDLAAEGQRITLDALERIHRHKTGALIRAAVRLGALSAGDKGRNTLPILDRYAESIGLAFQVQDDILDVVGDTATLGKRQGADQQLGKSTYPALLGLEQARNKARDLIEDARQSLHQLAAQSLDTSALEALANYIIQRDK | not soluble
MFIPSIYLHQQLHYCKTAILNWSRKMALSRQKFTFERLRRFTLPEGKKQTFLWDADVTTLACRATSGAKAFVFQSVYAGKTLRMTIGNINDWKIDDARAEARRLQTLIDTGIDPRIAKAVKIAEAESLQAESRKTKVTFSVAWEDYLQELRTGISAKTKRPYSTRYIADHINLSSRGGESKKRGQGPTSAGPLASLLNLPLSELTPDYIAAWLSTERQNRPTVTAHAYRLLRAFIKWSNYQKKYQGIIPGDLAQDYNVRKMVPVSASKADDCLQKEQLKSWFSAVRSLNNPIASAYLQVLLLTGARREEIASLRWSDVDFKWSSMRIKDKIEGERIIPLTPYVSELLNVLAQSPNSDVNKEGWVFRSNSKSGKIIEPRSAHNRALVLAELPHISLHGLRRSFGTLAEWVEVPTGIVAQIMGHKPSALAEKHYRRRPLDLLRKWHEKIETWILNEAGITIKNNVDMR | soluble
MGSDKIHHHHHHMRIAYLSSAYLAPVEYYTKLLEYDKIYVEQHDHYIKQTYRNRCTIAGPDGELALSIPTVKPDTLKCPMKDIRISDHGNWRHLHWNAIESAYNSTPYFEYYKDDFRPFYEKKYEFLADFNEELCQLVCKLIDIQPCIERTSEYKTEFTTEETDFREIIHPKKDFQIADPEFVPHPYYQVFDSKLGFLPNLSIIDLLFNMGPESLLVLTSK | not soluble
MGHHHHHHSHIEETTMTTQTPAPIQAPSAILPLPGQSVERLCVDPRHRQGPVNLLSDPEQGVEVTGQYEREKAGFSWIEVTFKNPLVWVHASPEHVVVTRNRRSSAYKWKETLFSVMPGLKMTMDKTGLLLLSDPDKVTIGLLFWDGRGEGLRLLLRDTDRFSSHVGGTLGQFYQEVLWGSPAASD | not soluble
MGSDKIHHHHHHMSLFNIFDVSGSGMAAQSIRLNTTASNIANADSVSSSVDKTYRARHPIFEAELNKAHDQQNGTKGVQVRAIVESDKPLLKEYSPSHPMADGDGFIYKPNVNVMEEMADMISASRSYQMNVQVADATKTMLQQTLRMGK | not soluble
MSLQHNGHSYTVEGLINDSTLNGQTLYISRYDDGMKVDSTQVTNGQFKFTGKADIPCFCRIDAGREYANFILEGGNIQVNVLTHNDPKGTPMNEEYTHISDKTSELVTELRKRHAAIEQQTEDKSEQLRLKKEYADTYWHPTYTRLYKDMFMKNPDNALGEFAIRELAMCALPEEMDTIFAASGPWLKSLSVYHRIEKQFQGMKATAVGQKFTDFSGKTIDGAASSLSDFVGKGQYTLVDFWASWCGPCRSESPHIAELYNTYKDKGLTVLGVAVWDKPENTKKAIKELNIDWPQIIDTGMTPMDLYGVKGIPFILLFGPDGTIIARDLRGEGMKNKVAEVLNNKEGHHHHHH | soluble
MCGIFAYLNFLTPKKRSEIVDILVQGLQRMEYRGYDSAGIAIDGSNEIESPHSSVALLRKAGKVSVLSDFIKESSSDLDMDMEYNIHCGIAHTRWATHGSPRDVNSHPHRSNDKNEFLVVHNGIITNYREIKEYLEKKGHKFESETDTEVIAKLAQHIHDRYPDFSFRQLVETVIQQLEGAFALAFKSSRFPGQLVASRRGSPLLVGIKSNSRLQTNHFPVSFSKDAGWKWGDEKQTDGRRFMSNHATHLRDETSFVETPNNILDLSIAVRSSNGSAKMEISDSTTAVRPFDSDDWEVEYFVASDAAAIIEHTKQVLFLEDDDVAFVEDGALTIHRISRHADNGEQKREVKLLEMELQEIMKGSFKTYMQKEIFEQPDSVVNTMRGRVLPSGQVVLGGIKEYLPDIKRCRRLIMVACGTSYHSAIACRQILEELSELPVVVELASDFLDRETPIFRDDVCLFISQSGETADTLLALRYCKPRGALTIGVTNTVGSSICRESHCGIHINAGPEIGVASTKAYTSQILSLLMFALTLSDDRISMAKRREEIIDALNDLPELIREVLQLDEKVLDIAKQIYKEKSLLIMGRGLNFATCLEGALKIKELSYMHCEGIMSGELKHGPLAMVDEFLSICMVVCNDRVYKKSLNALQQVVARKGAPIIIADCTVPEGDLAGMKHILRVPKTVDCVQNILTVIPLQLLSYHIAELNGANVDRPRNLAKSVTVE | not soluble
MGSDKIHHHHHHMRFGYFDDVNREYVITTPQTPYPWINYLGTEDFFSIISHMAGGYCFYKDARLRRITRFRYNNVPTDAGGRYFYIREENGDFWTPTWMPVRKDLSFFEARHGLGYTKITGERNGLRATITYFVPRHFTGEVHYLVLENKAEKPRKIKLFSFIEFCLWNALDDMTNFQRNYSTGEVEIEGSVIYHKTEYRERRNHYAFYSVNQPIDGFDTDRESFIGLYSGFEAPQAVVEGKPRNSVASGWAPIASHYLEIELAPSEKKELIFILGYVENPEEEKWEKPGVINKKRAKEMIEKFKTGEDVEHALKELREYWDDLLGRIQVETHDEKLNRMVNIWNQYQCMVTFNISRSASYFESGISRGIGFRDSNQDILGFVHMIPEKARQRILDLASIQFEDGSTYHQFQPLTKKGNNEIGGGFNDDPLWLILSTSAYIKETGDWSILGEEVPFDNDPNKKASLFEHLKRSFYFTVNNLGPHGLPLIGRADWNDCLNLNCFSKNPDESFQTTVNALDGRVAESVFIAGLFVLAGKEFVEICKRRGLEEEAREAEKHVNKMIETTLKYGWDGEWFLRAYDAFGRKVGSKECEEGKIFIEPQGMCVMAGIGVDNGYAEKALDSVKKYLDTPYGLVLQQPAYSRYYIELGEISSYPPGYKENAGIFCHNNPWVAIAETVIGRGDRAFEIYRKITPAYLEDISEIHRTEPYVYAQMVAGKDAPRHGEAKNSWLTGTAAWSFVAITQHILGIRPTYDSLVVDPCIPKEWEGFRITRKFRGSIYDITVKNPSHVSKGVKEIIVDGKKIEGQVLPVFEDGKVHRVEVVMG | not soluble
